Data taken from US20080026996A1, “Selective Vpac2 Receptor Reptide Agonists” (ELI LILLY AND COMPANY, priority 2004, published 2008).
Where no end group is shown, it is not given here. [ ]: non-standard residue; d: D form. The star is where a group is joined. Hexanoyl = CCCCCC(=O)*

T1: human VPAC2 receptor (human, UniProt P41587 24-438)
T1 sequence (looked up): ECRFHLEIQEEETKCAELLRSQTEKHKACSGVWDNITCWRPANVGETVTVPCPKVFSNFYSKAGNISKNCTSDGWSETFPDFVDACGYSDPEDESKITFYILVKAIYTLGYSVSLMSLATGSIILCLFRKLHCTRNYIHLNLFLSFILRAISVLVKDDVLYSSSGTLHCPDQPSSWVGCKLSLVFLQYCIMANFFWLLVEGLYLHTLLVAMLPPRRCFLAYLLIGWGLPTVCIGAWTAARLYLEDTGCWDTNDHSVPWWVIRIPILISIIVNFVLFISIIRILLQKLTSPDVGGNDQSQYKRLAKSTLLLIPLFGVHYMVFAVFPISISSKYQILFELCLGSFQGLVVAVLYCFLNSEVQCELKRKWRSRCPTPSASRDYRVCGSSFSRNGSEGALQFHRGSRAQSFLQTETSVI

T2: human PAC1 receptor (human, UniProt P41586 21-468)
T2 sequence (looked up): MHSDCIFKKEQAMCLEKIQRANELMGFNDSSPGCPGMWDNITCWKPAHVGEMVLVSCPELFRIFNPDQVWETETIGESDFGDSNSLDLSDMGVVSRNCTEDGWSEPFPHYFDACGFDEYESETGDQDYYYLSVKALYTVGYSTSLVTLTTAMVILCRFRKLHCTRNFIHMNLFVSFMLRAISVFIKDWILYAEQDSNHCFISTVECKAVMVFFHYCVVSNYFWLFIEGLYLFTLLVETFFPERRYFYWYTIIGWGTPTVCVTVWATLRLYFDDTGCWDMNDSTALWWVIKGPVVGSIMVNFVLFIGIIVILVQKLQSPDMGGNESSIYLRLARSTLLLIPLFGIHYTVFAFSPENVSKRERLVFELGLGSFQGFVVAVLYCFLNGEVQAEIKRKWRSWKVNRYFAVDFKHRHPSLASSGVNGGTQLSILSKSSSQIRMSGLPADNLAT

T3: human VPAC1 receptor (human, UniProt P32241 31-457)
T3 sequence (looked up): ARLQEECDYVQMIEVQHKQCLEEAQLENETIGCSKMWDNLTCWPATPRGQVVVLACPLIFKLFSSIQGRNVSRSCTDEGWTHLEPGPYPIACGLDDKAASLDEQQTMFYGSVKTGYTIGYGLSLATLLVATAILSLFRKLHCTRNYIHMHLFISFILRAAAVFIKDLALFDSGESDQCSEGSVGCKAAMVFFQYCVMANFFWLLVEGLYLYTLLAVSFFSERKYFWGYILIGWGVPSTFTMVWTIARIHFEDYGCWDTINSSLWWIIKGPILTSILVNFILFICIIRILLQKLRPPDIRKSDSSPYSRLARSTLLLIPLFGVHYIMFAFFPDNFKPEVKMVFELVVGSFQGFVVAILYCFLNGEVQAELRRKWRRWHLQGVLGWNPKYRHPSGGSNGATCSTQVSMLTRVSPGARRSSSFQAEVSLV

T4: rat VPAC1 receptor (rat, UniProt P30083 31-459)
T4 sequence (looked up): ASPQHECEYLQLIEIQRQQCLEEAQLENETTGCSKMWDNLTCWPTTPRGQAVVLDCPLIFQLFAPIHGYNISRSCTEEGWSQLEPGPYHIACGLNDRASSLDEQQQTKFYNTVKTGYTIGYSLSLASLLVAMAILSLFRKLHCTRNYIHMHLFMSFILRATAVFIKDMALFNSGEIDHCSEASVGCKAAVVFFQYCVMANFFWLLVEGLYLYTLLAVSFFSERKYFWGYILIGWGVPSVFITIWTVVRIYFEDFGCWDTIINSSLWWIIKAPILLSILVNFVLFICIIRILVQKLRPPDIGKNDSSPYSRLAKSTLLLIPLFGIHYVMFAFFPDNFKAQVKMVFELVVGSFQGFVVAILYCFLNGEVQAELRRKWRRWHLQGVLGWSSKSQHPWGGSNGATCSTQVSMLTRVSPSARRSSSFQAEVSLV


The binders below were run against T1, human VPAC2 receptor (assay: cell-based or functional assay).

Row | Binder | EC50 cAMP, Alpha Screen [nM] | EC50 cAMP, DiscoveRx [nM]
1 | Hexanoyl-HSDAVFTDNYTRLRKQVAAKKYLQTIKNKRYGGPSSGAPPPS [P115] | 0.2 | 
2 | HVDAVFTDNYTRLRKQVAAKKYLQSIKNKRYGGPSSGAPPPS (not fully specified) [P44] |  | 0.92
3 | HSDAVTTDNYTRLRKQVAAKKYLQSIKNKRYGGPSSGAPPPS [P65] |  | > 1000
4 | HSDAVFTDNYTRLRKQVAAKKYLQSIKNKRYGGPSSGAPPPS [P6] | 3.19 | 2.56
5 | HSDAWFTDNYTRLRKQVAAKKYLQSIKNKRYGGPSSGAPPPS [P69] |  | 6.39
6 | HSDAVITDNYTRLRKQVAAKKYLQSIKNKRYGGPSSGAPPPS [P63] |  | > 1000
7 | HSDWVFTDNYTRLRKQVAAKKYLQSIKNKRYGGPSSGAPPPS [P56] |  | 109
8 | HSDALFTDNYTRLRKQVAAKKYLQSIKNKRYGGPSSGAPPPS (not fully specified) [P61] |  | 2.14
9 | HSDAVVTDNYTRLRKQVAAKKYLQSIKNKRYGGPSSGAPPPS [P66] |  | > 1000
10 | HSDFVFTDNYTRLRKQVAAKKYLQSIKNKRYGGPSSGAPPPS [P52] |  | 140
11 | HSDVVFTDNYTRLRKQVAAKKYLQSIKNKRYGGPSSGAPPPS [P53] |  | 50.5
12 | HSDLVFTDNYTRLRKQVAAKKYLQSIKNKRYGGPSSGAPPPS (not fully specified) [P55] |  | 15.3
13 | HSDTVFTDNYTRLRKQVAAKKYLQSIKNKRYGGPSSGAPPPS [P54] |  | 32.8
14 | HSDAVFTDNYTRLRKQVAAKKYLQSIKNNRYGGPSSGAPPPS [P75] |  | 3.44
15 | HSDAVYTDNYTRLRKQVAAKKYLQSIKNKRYGGPSSGAPPPS [P68] |  | 20.3
16 | HSDAVLTDNYTRLRKQVAAKKYLQSIKNKRYGGPSSGAPPPS [P64] |  | > 1000
17 | HSDAVFTDNYTRLRKQVAAKKYLQSIKNKIYGGPSSGAPPPS [P76] |  | 3.88
18 | HSDYVFTDNYTRLRKQVAAKKYLQSIKNKRYGGPSSGAPPPS [P51] |  | 91.1
19 | HSDAVFTDNYTRLRKQVAAKKYLQSIQNKRYGGPSSGAPPPS [P74] |  | 2.72
20 | HSDAFFTDNYTRLRKQVAAKKYLQSIKNKRYGGPSSGAPPPS [P58] |  | 11.8
21 | HLDAVFTDNYTRLRKQVAAKKYLQSIKNKRYGGPSSGAPPPS [P46] |  | 121
22 | HPDAVFTDNYTRLRKQVAAKKYLQSIKNKRYGGPSSGAPPPS [P49] |  | 13.4
23 | HSDATFTDNYTRLRKQVAAKKYLQSIKNKRYGGPSSGAPPPS [P62] |  | 13.2
24 | HSDAYFTDNYTRLRKQVAAKKYLQSIKNKRYGGPSSGAPPPS [P70] |  | 4.89
25 | HTDAVFTDNYTRLRKQVAAKKYLQSIKNKRYGGPSSGAPPPS [P45] |  | 11.6
26 | H[dS]DAVFTDNYTRLRKQVAAKKYLQSIKNKRYGGPSSGAPPPS [P48] |  | 9.55

The binders below were run against T2, human PAC1 receptor (assay: cell-based or functional assay).

Row | Binder | EC50 cAMP, DiscoveRx [nM]
27 | HVDAVFTDNYTRLRKQVAAKKYLQSIKNKRYGGPSSGAPPPS (not fully specified) [P44] | 36.6
28 | HSDAVTTDNYTRLRKQVAAKKYLQSIKNKRYGGPSSGAPPPS [P65] | 0.7
29 | HSDAVFTDNYTRLRKQVAAKKYLQSIKNKRYGGPSSGAPPPS [P6] | > 40
30 | HSDAWFTDNYTRLRKQVAAKKYLQSIKNKRYGGPSSGAPPPS [P69] | 104
31 | HSDAVITDNYTRLRKQVAAKKYLQSIKNKRYGGPSSGAPPPS [P63] | 0.9
32 | HSDWVFTDNYTRLRKQVAAKKYLQSIKNKRYGGPSSGAPPPS [P56] | 405
33 | HSDALFTDNYTRLRKQVAAKKYLQSIKNKRYGGPSSGAPPPS (not fully specified) [P61] | 11.6
34 | HSDAVVTDNYTRLRKQVAAKKYLQSIKNKRYGGPSSGAPPPS [P66] | 1.4
35 | HSDFVFTDNYTRLRKQVAAKKYLQSIKNKRYGGPSSGAPPPS [P52] | > 1000
36 | HSDVVFTDNYTRLRKQVAAKKYLQSIKNKRYGGPSSGAPPPS [P53] | > 1000
37 | HSDLVFTDNYTRLRKQVAAKKYLQSIKNKRYGGPSSGAPPPS (not fully specified) [P55] | > 1000
38 | HSDTVFTDNYTRLRKQVAAKKYLQSIKNKRYGGPSSGAPPPS [P54] | > 1000
39 | HSDAVFTDNYTRLRKQVAAKKYLQSIKNNRYGGPSSGAPPPS [P75] | 13.4
40 | HSDAVYTDNYTRLRKQVAAKKYLQSIKNKRYGGPSSGAPPPS [P68] | 94.7
41 | HSDAVLTDNYTRLRKQVAAKKYLQSIKNKRYGGPSSGAPPPS [P64] | 0.1
42 | HSDAVFTDNYTRLRKQVAAKKYLQSIKNKIYGGPSSGAPPPS [P76] | 15.9
43 | HSDYVFTDNYTRLRKQVAAKKYLQSIKNKRYGGPSSGAPPPS [P51] | > 1000
44 | HSDAVFTDNYTRLRKQVAAKKYLQSIQNKRYGGPSSGAPPPS [P74] | 145
45 | HSDAFFTDNYTRLRKQVAAKKYLQSIKNKRYGGPSSGAPPPS [P58] | 35.6
46 | HLDAVFTDNYTRLRKQVAAKKYLQSIKNKRYGGPSSGAPPPS [P46] | > 1000
47 | HPDAVFTDNYTRLRKQVAAKKYLQSIKNKRYGGPSSGAPPPS [P49] | 44.2
48 | HSDATFTDNYTRLRKQVAAKKYLQSIKNKRYGGPSSGAPPPS [P62] | 137
49 | HSDAYFTDNYTRLRKQVAAKKYLQSIKNKRYGGPSSGAPPPS [P70] | 20.7
50 | HTDAVFTDNYTRLRKQVAAKKYLQSIKNKRYGGPSSGAPPPS [P45] | 316
51 | H[dS]DAVFTDNYTRLRKQVAAKKYLQSIKNKRYGGPSSGAPPPS [P48] | 95.9

The binders below were run against T3, human VPAC1 receptor (assay: cell-based or functional assay).

Row | Binder | EC50 cAMP, DiscoveRx [nM]
52 | HVDAVFTDNYTRLRKQVAAKKYLQSIKNKRYGGPSSGAPPPS (not fully specified) [P44] | 5.5
53 | HSDAVTTDNYTRLRKQVAAKKYLQSIKNKRYGGPSSGAPPPS [P65] | > 1000
54 | HSDAVFTDNYTRLRKQVAAKKYLQSIKNKRYGGPSSGAPPPS [P6] | 5
55 | HSDAWFTDNYTRLRKQVAAKKYLQSIKNKRYGGPSSGAPPPS [P69] | 8.48
56 | HSDAVITDNYTRLRKQVAAKKYLQSIKNKRYGGPSSGAPPPS [P63] | > 1000
57 | HSDWVFTDNYTRLRKQVAAKKYLQSIKNKRYGGPSSGAPPPS [P56] | 9.96
58 | HSDALFTDNYTRLRKQVAAKKYLQSIKNKRYGGPSSGAPPPS (not fully specified) [P61] | 2.58
59 | HSDAVVTDNYTRLRKQVAAKKYLQSIKNKRYGGPSSGAPPPS [P66] | < 1000
60 | HSDFVFTDNYTRLRKQVAAKKYLQSIKNKRYGGPSSGAPPPS [P52] | 37.5
61 | HSDVVFTDNYTRLRKQVAAKKYLQSIKNKRYGGPSSGAPPPS [P53] | 118
62 | HSDLVFTDNYTRLRKQVAAKKYLQSIKNKRYGGPSSGAPPPS (not fully specified) [P55] | 134
63 | HSDTVFTDNYTRLRKQVAAKKYLQSIKNKRYGGPSSGAPPPS [P54] | 84.1
64 | HSDAVFTDNYTRLRKQVAAKKYLQSIKNNRYGGPSSGAPPPS [P75] | 0.65
65 | HSDAVYTDNYTRLRKQVAAKKYLQSIKNKRYGGPSSGAPPPS [P68] | 41
66 | HSDAVLTDNYTRLRKQVAAKKYLQSIKNKRYGGPSSGAPPPS [P64] | 221
67 | HSDAVFTDNYTRLRKQVAAKKYLQSIKNKIYGGPSSGAPPPS [P76] | 0.8
68 | HSDYVFTDNYTRLRKQVAAKKYLQSIKNKRYGGPSSGAPPPS [P51] | 3.61
69 | HSDAVFTDNYTRLRKQVAAKKYLQSIQNKRYGGPSSGAPPPS [P74] | 0.4
70 | HSDAFFTDNYTRLRKQVAAKKYLQSIKNKRYGGPSSGAPPPS [P58] | 44.1
71 | HLDAVFTDNYTRLRKQVAAKKYLQSIKNKRYGGPSSGAPPPS [P46] | 57.5
72 | HPDAVFTDNYTRLRKQVAAKKYLQSIKNKRYGGPSSGAPPPS [P49] | 22.8
73 | HSDATFTDNYTRLRKQVAAKKYLQSIKNKRYGGPSSGAPPPS [P62] | 17
74 | HSDAYFTDNYTRLRKQVAAKKYLQSIKNKRYGGPSSGAPPPS [P70] | 27.4
75 | HTDAVFTDNYTRLRKQVAAKKYLQSIKNKRYGGPSSGAPPPS [P45] | 1.75
76 | H[dS]DAVFTDNYTRLRKQVAAKKYLQSIKNKRYGGPSSGAPPPS [P48] | 9.93

These binders were tested against T4, rat VPAC1 receptor (assay: cell-based or functional assay).

Row | Binder | EC50 cAMP, DiscoveRx [nM]
77 | Hexanoyl-HSDAVFTDNYTRLRKQVAAKKYLQTIKNKRYGGPSSGAPPPS [P115] | 0.95
78 | Hexanoyl-HSDAVFTDNYTRLRKQVAAKKYLQSIKNKRYGGPSSGAPPPC [P120] | 0.42
